Measured values taken from paper PMC6486591, “Cryo-EM structures of the pore-forming A subunit from the Yersinia entomophaga ABC toxin” (Nature Communications, 2019).

B1: Chi1 (enzyme)
chain: MEKEEKSNLIYDKDPGYVWDNKNECEGAAEETYQELNYEPSISADKLTWTPTRLAKTVFNTYEDDDDFNVLCYFTDWSQYDPRIINKEIRDTGGRSADILRLNTPDGRPFKRLIYSFGGLIGDKKYSADGNASIAVRLGVATDPDDAIANHKGKTIPVDPDGAVLASINCGFTKWEAGDANERYNQEKAKGLLGGFRLLHEADKELEFSLSIGGWSMSGLFSEIAKDEILRTNFVEGIKDFFQRFPMFSHLDIDWEYPGSIGAGNPNSPDDGANFAILIQQITDAKISNLKGISIASSADPAKIDAANIPALMDAGVTGINLMTYDFFTLGDGKLSHHTNIYRDPSDVYSKYSIDDAVTHLIDEKKVDPKAIFIGYAGYTRNAKNATITTSIPSEEALKGTYTDANQTLGSFEYSVLEWTDIICHYMDFEKGEGRNGYKLVHDKVAKADYLYSEATKVFISLDTPRSVRDKGRYVKDKGLGGLFIWSGDQDNGILTNAAHEGLKRRIKNKVIDMTPFYLDSDEELPTYTEPAEPQCEACNIK
notes: Chi1, endochitinase of Yersinia entomophaga, subunit of YenTcA; earlier crystal structure PDB 3oa5 was fitted as a rigid body; Natively expressed, no fusion tags; Five copies stand in YenTcA; Chi1 is not in the deposited atomic model 6ogd; also called endochitinase Chi1; Chi1 subunit
B2: Chi2 (enzyme)
chain: MVNKYTYTSSKAMSDISDVIGEPLAAWDSQVGGRVFNVIFDGKVYTNTYWVERWQVPGIGSSDGNPHNAWKFVRAATADEINKIGNPTTADVKPTENIPSPILVEDKYTEETYSRPDVNFKEDGSQGNLSYTATRVCAPMYNHYVGDKTKPKLSAYITDWCQYDARLDGGGSKEEERGRGFDLATLMQNPATYDRLIFSFLGICGDIGNKSKKVQEVWDGWNAQAPSLGLPQIGKGHIVPLDPYGDLGTARNVGLPPESADTSIESGTFLPYYQQNRAAGLLGGLRELQKKAHAMGHKLDLAFSIGGWSLSSYFSALAENPDERRVFVASVVDFFVRFPMFSCVDIDWEYPGGGGDEGNISSDKDGENYVLLIKELRSALDSRFGYSNRKEISIACSGVKAKLKKSNIDQLVANGLDNIYLMSYDFFGTIWADYIGHHTNLYSPKDPGEQELFDLSAEAAIDYLHNELGIPMEKIHLGYANYGRSAVGGDLTTRQYTKNGPALGTMENGAPEFFDIVKNYMDAEHSLSMGKNGFVLMTDTNADADFLFSEAKGHFISLDTPRTVKQKGEYAAKNKLGGVFSWSGDQDCGLLANAAREGLGYVADSNQETIDMGPLYNPGKEIYLKSISEIKSK
notes: Chi2, endochitinase of Yersinia entomophaga, subunit of YenTcA; N-terminal domain residues 1-91 (unmodelled), chitinase domain residues 92-632 (earlier crystal structure PDB 4dws); Natively expressed, no fusion tags; Five copies stand in the YenTcA complex; also called endochitinase Chi2; Chi2 subunit

Key:
YenA2 = molecular target: T1, YenA2 (Yersinia entomophaga, UniProt B6A878 1-1364); experiment: cryo-EM structure; YenTcA soluble pre-pore form, single-particle cryo-EM, 4.4 Å average resolution, C5 symmetry; 0.1 mg/mL in 25 mM Tris, 150 mM NaCl, pH 7.5, with 10 mM NDSB-195; details: both partners purified
T1 construct: YenA2, TcA-like protein of Yersinia entomophaga (156 kDa), subunit of YenTcA; UniProt entry name B6A878_9GAMM is printed; holds the shell domain (1-165; 559-812), neuraminidase-like domain (166-332; Natively expressed, no fusion tags; Five copies stand in the YenTcA complex and form the pentameric pore; also called TcA-like protein YenA2
T1 sequence (B6A878 whole entry, the tested form may be a part): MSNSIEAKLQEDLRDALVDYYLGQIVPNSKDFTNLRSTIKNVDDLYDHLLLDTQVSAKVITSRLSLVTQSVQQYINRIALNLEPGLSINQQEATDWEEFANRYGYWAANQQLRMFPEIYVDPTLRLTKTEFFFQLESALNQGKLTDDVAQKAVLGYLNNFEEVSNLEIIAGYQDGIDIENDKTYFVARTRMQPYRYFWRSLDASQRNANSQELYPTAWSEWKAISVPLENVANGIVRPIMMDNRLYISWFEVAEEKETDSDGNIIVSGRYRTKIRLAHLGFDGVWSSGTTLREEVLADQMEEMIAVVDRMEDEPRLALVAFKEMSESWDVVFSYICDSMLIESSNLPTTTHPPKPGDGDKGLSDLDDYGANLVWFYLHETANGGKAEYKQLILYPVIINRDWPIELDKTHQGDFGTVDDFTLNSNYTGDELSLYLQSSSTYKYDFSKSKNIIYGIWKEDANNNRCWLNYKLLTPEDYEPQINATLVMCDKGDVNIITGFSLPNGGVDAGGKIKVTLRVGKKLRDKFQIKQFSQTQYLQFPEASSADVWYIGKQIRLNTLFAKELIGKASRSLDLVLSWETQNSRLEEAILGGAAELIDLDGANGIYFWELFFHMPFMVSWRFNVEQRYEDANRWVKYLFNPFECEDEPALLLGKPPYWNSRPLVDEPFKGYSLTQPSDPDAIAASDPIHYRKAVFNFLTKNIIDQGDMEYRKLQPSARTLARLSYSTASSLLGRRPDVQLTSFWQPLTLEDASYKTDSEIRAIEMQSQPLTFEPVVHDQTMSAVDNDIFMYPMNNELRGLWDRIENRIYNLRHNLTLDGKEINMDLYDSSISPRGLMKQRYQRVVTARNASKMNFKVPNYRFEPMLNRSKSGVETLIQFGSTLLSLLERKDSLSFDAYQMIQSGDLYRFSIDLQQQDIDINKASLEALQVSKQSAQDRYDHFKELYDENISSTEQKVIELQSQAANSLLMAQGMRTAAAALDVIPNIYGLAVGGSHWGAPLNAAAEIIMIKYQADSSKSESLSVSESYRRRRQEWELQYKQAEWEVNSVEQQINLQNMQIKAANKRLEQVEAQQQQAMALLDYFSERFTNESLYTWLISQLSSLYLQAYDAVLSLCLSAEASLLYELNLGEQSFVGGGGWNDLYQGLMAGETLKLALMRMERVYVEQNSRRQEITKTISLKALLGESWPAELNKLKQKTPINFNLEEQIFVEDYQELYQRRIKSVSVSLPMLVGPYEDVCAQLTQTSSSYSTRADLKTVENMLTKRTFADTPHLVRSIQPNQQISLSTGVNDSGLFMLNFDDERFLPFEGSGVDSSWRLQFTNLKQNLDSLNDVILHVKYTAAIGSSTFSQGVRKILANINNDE

YenA1 = molecular target: T2, YenA1 (Yersinia entomophaga, UniProt B6A877 1-1164); experiment: as above; details: both partners purified
T2 construct: YenA1, TcA-like protein of Yersinia entomophaga (130 kDa), subunit of YenTcA; residues 45-304 and 584-1164 are resolved in the alpha-helical shell, residues 305-583 are an unmodelled domain insertion; Natively expressed, no fusion tags; Five copies stand in the YenTcA complex; also called TcA-like protein YenA1
T2 sequence (B6A877 whole entry, the tested form may be a part): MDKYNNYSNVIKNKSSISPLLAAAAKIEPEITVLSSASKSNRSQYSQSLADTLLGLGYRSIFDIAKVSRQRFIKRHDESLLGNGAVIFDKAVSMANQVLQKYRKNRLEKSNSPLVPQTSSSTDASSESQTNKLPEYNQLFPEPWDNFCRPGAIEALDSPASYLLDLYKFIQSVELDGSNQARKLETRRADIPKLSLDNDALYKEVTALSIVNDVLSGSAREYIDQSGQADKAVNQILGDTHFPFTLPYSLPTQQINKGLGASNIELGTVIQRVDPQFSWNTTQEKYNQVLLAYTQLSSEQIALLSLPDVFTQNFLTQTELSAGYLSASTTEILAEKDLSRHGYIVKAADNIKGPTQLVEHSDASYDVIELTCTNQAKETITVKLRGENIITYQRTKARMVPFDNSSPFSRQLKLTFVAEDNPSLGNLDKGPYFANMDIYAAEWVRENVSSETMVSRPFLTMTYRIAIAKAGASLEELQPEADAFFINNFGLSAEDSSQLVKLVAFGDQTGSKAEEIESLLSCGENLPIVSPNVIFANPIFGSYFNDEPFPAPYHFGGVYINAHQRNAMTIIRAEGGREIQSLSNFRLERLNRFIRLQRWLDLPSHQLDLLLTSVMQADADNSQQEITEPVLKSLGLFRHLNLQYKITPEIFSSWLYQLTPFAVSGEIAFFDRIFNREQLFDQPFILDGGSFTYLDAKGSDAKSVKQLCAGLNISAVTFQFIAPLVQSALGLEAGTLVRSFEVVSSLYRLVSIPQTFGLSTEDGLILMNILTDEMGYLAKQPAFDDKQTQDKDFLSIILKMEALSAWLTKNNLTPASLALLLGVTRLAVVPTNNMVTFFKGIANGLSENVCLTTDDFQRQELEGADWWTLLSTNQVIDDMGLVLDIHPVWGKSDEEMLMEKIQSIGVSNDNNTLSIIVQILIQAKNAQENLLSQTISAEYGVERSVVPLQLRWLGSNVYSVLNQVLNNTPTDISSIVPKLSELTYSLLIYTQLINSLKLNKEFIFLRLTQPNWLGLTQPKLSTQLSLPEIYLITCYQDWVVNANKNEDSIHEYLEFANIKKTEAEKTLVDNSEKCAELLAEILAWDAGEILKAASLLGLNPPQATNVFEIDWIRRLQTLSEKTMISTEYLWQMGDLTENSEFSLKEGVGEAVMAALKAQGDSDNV

Binder | binding result (YenA2) | binding result (YenA1)
B1 | binds | –
B2 | – | binds
